Reference: the supplement of paper PMC10567573
± gives the standard deviation.

Assay: protein stability index of a GFP-peptide fusion (GPS, HEK-293T) (PSI 1-6); higher = more stable
[1] = treatment: DMSO, c terminus: a fixed tail appended
[2] = treatment: MLN4924 1 uM, 8 h, c terminus: a fixed tail appended
[3] = treatment: DMSO, c terminus: native
[4] = treatment: MLN4924 1 uM, 8 h, c terminus: native
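Also: 24-mer peptide tiles fused after GFP, lentivirally expressed, FACS-sorted into six equal bins by GFP/DsRed ratio, decoded by Illumina sequencing, PSI is the read-weighted mean bin number.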

Row | Sequence | protein stability index [1] | protein stability index [2] | protein stability index [3] | protein stability index [4]
1 | RKYFADLAMNYKHGDPIPKVEFTE [TPH1] | 3.31 ± 0.32 | 3.3 ± 0.24 |  | 
2 | QAEIENKRRQLEDERRQLQHLKSK [PALM] | 5.02 ± 0.17 | 4.97 ± 0.36 |  | 
3 | IVSQKQMSDRRENDMSPSNNVVPI [RAB11A] | 4.34 ± 0.13 | 4.54 ± 0.14 |  | 
4 | DDEDEEEEDADCYDDDDSGNEES [UBE2R2] |  |  | 5.57 ± 0.33 | 5.57 ± 0.084
5 | VRIQNPSLRENDFIEIELDRQELT [ANKRD40] | 3.04 ± 0.41 | 3.26 ± 0.44 |  | 
6 | AISDQLLGAGSDLKDFTLNETVNS [ADAMTSL2] | 4.32 ± 0.21 | 4.8 ± 0.42 |  | 
7 | PELKSLAKTFHLVNPNGQKQQLVD [FAN1] | 4.05 ± 0.07 | 4.2 ± 0.22 |  | 
8 | IDSRARRNLGSINTELQDVQRIMV [SEC22B] | 2.8 ± 0.28 | 2.87 ± 0.29 |  | 
9 | GYPLPKLDMNFSLENREEPWVKEL [ZNF449] | 3.53 ± 0.12 | 3.7 ± 0.2 |  | 
10 | QYALELLTVYAWERGSMKTHFNTA [OAS1] | 3 ± 0.24 | 2.86 ± 0.43 |  | 
11 | DNVRSLKVESGAWIGYEHTSFCGQ [CRYBA1] | 3.14 ± 0.2 | 3.07 ± 0.22 |  | 
12 | GFGVLRLDADAAQRVVYLEGCGPP [TSPAN10] | 2.88 ± 0.33 | 2.65 ± 0.13 |  | 
13 | VAGDCLDEKQCKQCANKVLQHMKA [LRRC59] | 3.74 ± 0.14 | 3.9 ± 0.43 |  | 
14 | IRCRHPPPGSHLLYAKMIQKLADL [VDR] | 2.37 ± 0.33 | 2.23 ± 0.13 |  | 
15 | PDVIPLPHIYGARIKGVEVFCPLD [FAM189A2] | 2.55 ± 0.25 | 2.64 ± 0.14 |  | 
16 | GQRGAQGAGRRRRAGGPPRPMSEP [SMAD6] | 4.96 ± 0.21 | 5.08 ± 0.42 |  | 
17 | YDTTLALGHAAAFSDDCDLPSAQD [GLT8D2] | 5.33 ± 0.2 | 5.31 ± 0.3 |  | 
18 | KRNNFYIKIRPGEFEQFESTIGFK [EPB41L3] | 2.12 ± 0.52 | 2.46 ± 0.24 |  | 
19 | KNWVKELRQHGPPNIVVAIAGNKC [RAB22A] | 2.29 ± 0.23 | 2.47 ± 0.21 |  | 
20 | ALVCLLSCLLPSSEAKLYGRCELA [SPACA3] | 3.18 ± 0.42 | 3.04 ± 0.36 |  | 
21 | GGQCCRRQDSPSPDFYKQSSPNLQ [PCDHGC5] | 3.77 ± 0.33 | 3.78 ± 0.23 |  | 
22 | KNKKKKLKKKQKRQAELLEKRLQE [SRPK2] | 5.15 ± 0.42 | 5.06 ± 0.48 |  | 

Row | Sequence | protein stability index [1] | protein stability index [2] | protein stability index [3] | protein stability index [4]
23 | LAAAHGHSEVVEELVSADVIDLFD [RIPK4] | 4.08 ± 0.37 | 4.5 ± 0.46 |  | 
24 | YSRRLQVQERLTKQIAVAITEALR [GCH1] | 2.34 ± 0.47 | 2.19 ± 0.38 |  | 
25 | PSGPPPPPPSVLGVGPVAPPPPPP [WASL] | 4.86 ± 0.21 | 4.89 ± 0.18 |  | 
26 | VAGGVAVAAIALILGVAFLVRKK [CEND1] |  |  | 4.02 ± 0.29 | 4.16 ± 0.097
27 | PRCDLVDLGEGKICFCCEEFQPAK [FAM189A2] | 3.3 ± 0.44 | 3.67 ± 0.49 |  | 
28 | LESLEDTHIMKGEDDALSDKHGCP [TRIB1] | 5.23 ± 0.69 | 5.37 ± 0.57 |  | 
29 | NCHIGGSFSEETEKKFEHFSGLLN [LOXL2] | 3.02 ± 0.27 | 3.44 ± 0.32 |  | 
30 | VPGGAGPCATVSVFPGARLLTIGD [CARM1] | 2.73 ± 0.43 | 2.53 ± 0.48 |  | 
31 | AKGGFSGCSAVLSGGSSSSFRAGS [KRT71] | 3.17 ± 0.13 | 3.17 ± 0.24 |  | 
32 | GSINLLESPQLATLAEDVTAALAK [MAP2] | 4.12 ± 0.066 | 4.05 ± 0.27 |  | 
33 | STPVRREVTDKEQEFAARAAKQLE [EPB41L3] | 5.28 ± 0.2 | 5.27 ± 0.21 |  | 
34 | DQGDEGKEGRPGIPGLPGLRGLPG [SCARA5] | 5 ± 0.13 | 4.93 ± 0.29 |  | 
35 | MTPQLFINYKLKSVAHLPWRMLTY [CLPTM1] | 2.57 ± 0.71 | 2.45 ± 0.56 |  | 
36 | DLDACALVRGHRRRLLRRLSPSRG [ZSWIM9] | 4.11 ± 0.46 | 4.12 ± 0.29 |  | 
37 | KRFDESMQVFAKLGTDPTHVMGLY [VPS39] | 2.38 ± 0.25 | 2.69 ± 0.095 |  | 
38 | PAAKPDPDGGRADEWACELRLFGR [P3H4] | 3.47 ± 0.23 | 3.36 ± 0.33 |  | 
39 | DPRYNKWMQVASLNEKRTFFHLSA [KLHL13] | 2.36 ± 0.32 | 2.12 ± 0.13 |  | 
40 | QSLEGDTTKGTSEMSEKRGPTSSN [MLH1] | 5.54 ± 0.18 | 5.43 ± 0.28 |  | 
41 | EIMLQYCFPRLDINVSKGINHLLK [PRIM1] | 2.18 ± 0.67 | 2.5 ± 0.47 |  | 
42 | RGNTYALQTGPLLGRPDSLELQRQ [RSPH3] | 3.87 ± 0.15 | 3.9 ± 0.26 |  | 
43 | KVPIAQDELALSLGYAASLEASVQ [C2CD2L] | 3.65 ± 0.33 | 3.64 ± 0.34 |  | 
44 | QNCLWTLRNLSDAATKQEGMEGLL [CTNNB1] | 3.23 ± 0.28 | 3.04 ± 0.18 |  | 
